Results on five molecules are retold here after US7141417 (THOMAS JEFFERSON UNIVERSITY, dated 2006).

T1: glutathione S-transferase (GST) fused with full-length (67 kilodalton) Fez1 protein (human, UniProt Q9Y250 1-596)
T1 construct: Order GST then Fez1 follows the usual pGEX layout; also called GST-fused Fez1; GST-fused full-length 67 kDa Fez1; not shown: glutathione-S-transferase (GST) of the pGEX fusion expression vector (Pharmacia)
T1 sequence: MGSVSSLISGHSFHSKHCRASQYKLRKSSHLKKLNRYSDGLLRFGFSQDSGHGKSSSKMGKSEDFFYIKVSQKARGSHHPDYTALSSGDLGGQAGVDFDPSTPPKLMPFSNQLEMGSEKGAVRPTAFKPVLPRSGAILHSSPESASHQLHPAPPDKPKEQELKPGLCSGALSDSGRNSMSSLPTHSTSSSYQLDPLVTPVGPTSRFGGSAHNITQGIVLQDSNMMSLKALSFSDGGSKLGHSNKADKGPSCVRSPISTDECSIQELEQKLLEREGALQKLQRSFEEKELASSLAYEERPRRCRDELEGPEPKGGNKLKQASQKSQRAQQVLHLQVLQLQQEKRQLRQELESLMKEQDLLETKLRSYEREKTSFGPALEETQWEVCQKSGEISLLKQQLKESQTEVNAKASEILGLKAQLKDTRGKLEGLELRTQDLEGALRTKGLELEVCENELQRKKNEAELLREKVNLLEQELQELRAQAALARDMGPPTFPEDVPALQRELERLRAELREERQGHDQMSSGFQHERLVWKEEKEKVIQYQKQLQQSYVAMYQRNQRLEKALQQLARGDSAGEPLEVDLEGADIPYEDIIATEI

B1: EF1-γ(N), ^35S-methionine-labeled in vitro translated deletion mutant of EF1-γ (other)
chain: MAAGTLYTYPENWRAFKALIAAQYSGAQVRVLSAPPHFHFGQTNRTPEFLRKFPAGKVPAFEGDDGFCVFESNAIAYYVSNEELRGSTPEAAAQVVQWVSFADSDIVPPASTWVFPTLGIMHHNKQATENAKEEVRRILGLLDAYLKTRTFLV
modifications: ^35S-methionine label ; 35S-labelled methionine residues (radiolabel), written M
B2: GST fused with EF1-γ(N) (other, human, UniProt P26641 1-153, looked up)
chain: B1 chain
notes: not shown: glutathione S-transferase (GST)
B3: ^35S-methionine-labeled in vitro translated full-length 67 kDa Fez1 (other)
chain: T1 sequence
modifications: ^35S-methionine label
notes: also called full-length (67 kDa) Fez1 protein
B4: EF1-γ(M), ^35S-methionine-labeled in vitro translated deletion mutant of EF1-γ (other)
chain: GERVTLADITVVCTLLWLYKQVLEPSFRQAFPNTNRWFLTCINQPQFRAVLGEVKLCEKMAQFDAKKFAETQPKKDTPRKEKGSREEKQKPQAERKEEKKAAAPAPEEEMDECEQALAAEPKAKDPFAHLPKSTFVLDEFKRKYSNEDT
modifications: ^35S-methionine label ; 35S-labelled methionine residues (radiolabel), written M
B5: ^35S-methionine-labeled in vitro translated EF1-α (other, UniProt P68104 1-462, looked up)
chain: MGKEKTHINIVVIGHVDSGKSTTTGHLIYKCGGIDKRTIEKFEKEAAEMGKGSFKYAWVLDKLKAERERGITIDISLWKFETSKYYVTIIDAPGHRDFIKNMITGTSQADCAVLIVAAGVGEFEAGISKNGQTREHALLAYTLGVKQLIVGVNKMDSTEPPYSQKRYEEIVKEVSTYIKKIGYNPDTVAFVPISGWNGDNMLEPSANMPWFKGWKVTRKDGNASGTTLLEALDCILPPTRPTDKPLRLPLQDVYKIGGIGTVPVGRVETGVLKPGMVVTFAPVNVTTEVKSVEMHHEALSEALPGDNVGFNVKNVSVKDVRRGNVAGDSKNDPPMEAAGFTAQVIILNHPGQISAGYAPVLDCHTAHIACKFAELKEKIDRRSGKKLEDGPKFLKSGDAAIVDMVPGKPMCVESFSDYPPLGRFAVRDMRQTVAVGVIKAVDKKAAGAGKVTKSAQKAQKAK
modifications: ^35S-methionine label

The target of test [1] is T1, glutathione S-transferase (GST) fused …. Put plainly: in vitro binding of ^35S-labeled deletion mutants with GST-fused Fez1. On the procedure: (§1) In vitro Transcription/Translation, GST-Fusion Protein and in vitro Binding Assay In vitro transcription and translation was performed using a commercially-available, rabbit reticulocyte-based system, (TNT™ T7 Quick Coupled Transcription/Translation System, Promega) by labeling with ^35S-methionine, according to supplier's instructions. GST-fusion proteins were isolated using a glutathione-agarose column (Pharmacia). Proteins were incubated in two binding buffers: buffer A (comprising 100 millimolar NaCl, 0.5% NP-40, 0.75 milligrams per milliliter bovine serum albumin (BSA), 20 millimolar Tris-HCl pH 8.0, and 1 millimolar EDTA) and buffer B (comprising 150 millimolar NaCl, 0.1% (v/v) Tween 20, 0.75 milligrams per milliliter BSA, 50 millimolar Tris-HCl pH 8.0, 5 millimolar EDTA, 10% (v/v) glycerol). After the glutathione-agarose beads had been pre-incubated in a 10% (w/v) BSA suspension, the beads were mixed with protein samples and washed 5 times, each wash comprising mixing the beads with 10 volumes of the binding buffer. After the beads had been washed, the bead-containing liquid was centrifuged to recover binding proteins. The samples were boiled for 3 minutes and then the proteins in the samples were separated by SDS-PAGE. The gel was dried and exposed to film for 4–24 hours at –80° C.

Test [2] has as its target B3. Nature of the test: in vitro binding assay (figure legend); by paragraph 373 the labeled partner was Fez1 and EF1-γ(N) was GST-fused. As for the experimental part: as §1, with “C. […]” for “C.”
Test [3] concerns the target T1, glutathione S-transferase (GST) fused …. Put plainly: in vitro binding of ^35S-labeled full-length Fez1 with GST-fused full-length Fez1, buffer B. On the procedure: as §1
The amino acid sequence of Fez1 comprises a leucine-zipper-like region. […]

Test [4] has the same target. Put plainly: in vitro binding of ^35S-methionine-labeled in vitro translated EFs to GST-fused Fez1, glutathione-agarose beads, SDS-PAGE. As for the experimental part:
as §1

For B1, the binding result in test [1] is “binds”.
With B2, in test [2], the binding result is “binds”.
As for B3, the binding result in test [3] is “binds”.
Regarding B4, the binding result in test [1] was “no binding”.
As to B5, in test [4], the binding result is listed as “no binding”.
